As usually defined, the Kd is the free concentration of one partner at which half of the binding sites on the other are occupied at equilibrium, for simple one-to-one binding.

T1: His-tagged cynomolgus monkey TfR ectodomain (cyTFRC_89_760; mature protein) (cynomolgus monkey (Macaca fascicularis), UniProt Q5RDH6 89-760 (Pongo abelii entry))
T1 construct: also called cTfR; cTfR ectodomain
T1 chain: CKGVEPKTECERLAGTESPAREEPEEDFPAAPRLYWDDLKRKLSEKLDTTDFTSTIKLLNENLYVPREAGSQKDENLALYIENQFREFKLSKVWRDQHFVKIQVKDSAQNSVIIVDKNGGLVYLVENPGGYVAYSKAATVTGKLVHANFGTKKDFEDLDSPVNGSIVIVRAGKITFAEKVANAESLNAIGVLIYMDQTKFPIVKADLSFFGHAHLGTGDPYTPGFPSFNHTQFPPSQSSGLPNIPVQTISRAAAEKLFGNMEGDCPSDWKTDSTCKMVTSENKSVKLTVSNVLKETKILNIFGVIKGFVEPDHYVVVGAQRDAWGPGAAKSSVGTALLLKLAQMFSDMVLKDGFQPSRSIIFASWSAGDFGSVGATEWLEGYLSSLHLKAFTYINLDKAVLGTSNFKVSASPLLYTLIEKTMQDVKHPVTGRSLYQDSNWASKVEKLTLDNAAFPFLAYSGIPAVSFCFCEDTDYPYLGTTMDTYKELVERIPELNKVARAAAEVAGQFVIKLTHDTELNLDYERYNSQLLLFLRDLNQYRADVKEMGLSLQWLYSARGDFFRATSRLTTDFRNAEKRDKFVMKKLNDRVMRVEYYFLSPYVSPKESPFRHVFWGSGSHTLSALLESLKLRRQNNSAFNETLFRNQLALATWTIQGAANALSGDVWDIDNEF

B1: cTfR: AviTag fused in the N-terminus of the ectodomain of cTfR (amino acid residues 90 to 760 of SEQ ID NO: 2) (receptor)
chain: GSHHHHHHHHGGGGSLNDIFEAQKIEWHGSKGVEPKTECERLAGTESPAREEPEEDFPAAPRLYWDDLKRKLSEKLDTTDFTSTIKLLNENLYVPREAGSQKDENLALYIENQFREFKLSKVWRDQHFVKIQVKDSAQNSVIIVDKNGGLVYLVENPGGYVAYSKAATVTGKLVHANFGTKKDFEDLDSPVNGSIVIVRAGKITFAEKVANAESLNAIGVLIYMDQTKFPIVKADLSFFGHAHLGTGDPYTPGFPSFNHTQFPPSQSSGLPNIPVQTISRAAAEKLFGNMEGDCPSDWKTDSTCKMVTSENKSVKLTVSNVLKETKILNIFGVIKGFVEPDHYVVVGAQRDAWGPGAAKSSVGTALLLKLAQMFSDMVLKDGFQPSRSIIFASWSAGDFGSVGATEWLEGYLSSLHLKAFTYINLDKAVLGTSNFKVSASPLLYTLIEKTMQDVKHPVTGRSLYQDSNWASKVEKLTLDNAAFPFLAYSGIPAVSFCFCEDTDYPYLGTTMDTYKELVERIPELNKVARAAAEVAGQFVIKLTHDTELNLDYERYNSQLLLFLRDLNQYRADVKEMGLSLQWLYSARGDFFRATSRLTTDFRNAEKRDKFVMKKLNDRVMRVEYYFLSPYVSPKESPFRHVFWGSGSHTLSALLESLKLRRQNNSAFNETLFRNQLALATWTIQGAANALSGDVWDIDNEF
modifications: site-specific biotinylation on N-terminal Avitag
notes: Immobilised on streptavidin probes for BLI; also called biotinylated cTfR ectodomain
B2: 531v25Fab-FcOL (other)
heavy: QVQLVQSGAEVKKPGASVKVSCKASGYTFTRYYLNWVRQAPGQGLEWIGMIDPSVSETHYAQKFQGRATLTVDKSTSTAYMELSSLRSEDTAVYYCSQIRLPYYYAMDSWGQGTTVTVSSASTKGPSVFPLAPSSKSTSGGTAALGCLVKDYFPEPVTVSWNSGALTSGVHTFPAVLQSSGLYSLSSVVTVPSSSLGTQTYICNVNHKPSNTKVDKKVEPKSCDKTHTCPPCPAPELLGGPSVFLFPPKPKDTLMISRTPEVTCVVVDVSHEDPEVKFNWYVDGVEVHNAKTKPREEQYNNASRVVSVLTVLHQDWLNGKEYKCKVSNKALPAPIEKTISKAKGQPREPQVCTLPPSRDELTKNQVSLSCAVKGFYPSDIAVEWESNGQPENNYKTTPPVLDSDGSFFLVSKLTVDKSRWQQGNVFSCSVMHEALHNRFTQKSLSLSPG
light: not shown
chain: DKTHTCPPCPAPELLGGPSVFLFPPKPKDTLMISRTPEVTCVVVDVSHEDPEVKFNWYVDGVEVHNAKTKPREEQYNNASRVVSVLTVLHQDWLNGKEYKCKVSNKALPAPIEKTISKAKGQPREPQVYTLPPCRDELTKNQVSLWCLVKGFYPSDIAVEWESNGQPENNYKTTPPVLDSDGSFFLYSKLTVDKSRWQQGNVFSCSVMHEALHNHYTQKSLSLSPG
notes: Monovalent heterotrimer; It has a full IgG1 heavy chain (NNAS, hole, RF), a kappa light chain and an Fc polypeptide (knob) that dimerizes with the heavy chain

Assay [1] concerns the target T2, anti-TfR 531v25-Fab-FcOL-GAA.
T2 construct: Monovalent Fab-FcOL with GAA fused to the C-terminus of the Fc polypeptide
Put plainly: BLI (Octet), biotinylated AviTag-TfR ectodomain on streptavidin probes, 1:1 global fit. The source says:
(§1) A 1:1 binding model with global fitting was applied after double subtraction for buffer and probe analyte interaction with a 0-90 second association and 0-60 dissociation window.

The target in assay [2] is B1. Description: BLI; KD on cTfR against KD on hTfR.
Excerpt: as §1
(In general: In BLI a coated tip is dipped into the sample, and binding shifts an interference pattern.)

Assay [3] deals with B1. Description: BLI; KD on cTfR against KD on hTfR.
Excerpt: as §1

For assay [4], the target named is T3, hTfR: AviTag fused to the N-terminus of the ectodomain of human TfR (residues 90 to 760 of SEQ ID NO: 1) (human, UniProt P02786 90-760, site-specific biotinylation on N-terminal Avitag).
T3 construct: also called biotinylated hTfR ectodomain
Put plainly: BLI, immobilised AviTag-hTfR ectodomain, no saturation. The source says: (§2) A 1:1 binding model with global fitting was applied after double subtraction for buffer and probe analyte interaction with a 0-90 second association and 0-60 dissociation window. […] A 1:1 binding model with global fitting was applied after double subtraction for buffer and probe analyte interaction.

Assay [5] addresses T4, His-tagged human TfR ectodomain (hTFRC_89-760_G142S; mature protein) (human, UniProt P02786 89-760).
T4 construct: It carries the G142S haplotype; also called hTfR ectodomain
Put plainly: SPR, His-tagged TfR ectodomain captured on anti-His, 1:1 fit. The method, then:
(§3) Binding of the humanized Fab variants to human, cynomolgus and mouse TfR was assessed using SPR at pH 7.4. Experiments were run on a Bruker MASS-2 instrument with HBS-EP+ as running buffer and sample diluent (Cytiva Life Sciences, #BR100826). HCA sensor chips (Bruker, #1862614) were immobilized with anti-His antibody (His capture kit, Cytiva Life Sciences, #28995056) following manufacturer's instructions. About 10,000 RU of anti-His was obtained. His-tagged hTfR ectodomain (SEQ ID NO: 39), cTfR ectodomain (SEQ ID NO: 40) or mouse TfR ectodomain (SEQ ID NO: 41) (5 μg/ml) was captured for 1 min at 10 μL/min. Concentration series of the humanized Fab variants were then injected for 4 min at 30 μL/min over hTfR surfaces and dissociation was monitored for 5 min. Surface was regenerated with one 1 min pulse of 10 mM glycine-HCl at pH 1.5.
Background: SPR reads the build-up and loss of mass on a sensor chip optically.

The target in assay [6] is T1, His-tagged cynomolgus monkey TfR …. The description is as above. The method, then:
as §3

The target of assay [7] is T3, hTfR: AviTag fused to the N-terminus of …. Description: BLI, immobilised hTfR pre-saturated with 500 nM human holo-transferrin (competitor).
Excerpt: as §2

Assay [8] shares this target. Put plainly: BLI (Octet), biotinylated AviTag-TfR ectodomain on streptavidin probes, 1:1 global fit.
Excerpt: as §1

Assay [9] deals with B1. The assay is described as above.
Excerpt: as §1

The target of assay [10] is T3, hTfR: AviTag fused to the N-terminus of …. The description is as above.
Excerpt: as §1
The source holds these as a separate data set.

The target in assay [11] is B1. The description is as above.
Excerpt: as §1

Where “and” joins values, the source holds several entries; their conditions need not be identical. Equal values may be shown once. Read-outs that look alike come from different tables or passages of the source.

In turn, B1 returned a Kd in [1] of 69.9 nM.
In the case of B2, the “Cynomolgus/human KD ratio” value in [2] and in assay [3] was 4.7 each time. The dissociation constant Kd in assay [4] was 22.1 nM; in [5] it was 11.8 nM and 15 nM and 8.5 nM; in assay [6] it was 124 nM and 140 nM and 109 nM; in [7], 44 nM; in assay [8], 22.1 nM; in assay [9] it was 103 nM. Also, the Kd in [10] turned out to be 22.1 nM; in assay [11], 103 nM.
